Test results as given in the supplement of paper PMC10567573.

B1: ZNF449 (parent)
chain: FQEYDTDCEVFRQRFRQFQYREAA
B2: ZNF649 (parent)
chain: YHTGKTPFVCPECGQPCSQKSGLI

Variants of: B1
Test: protein stability index of a GFP-peptide fusion (GPS, HEK-293T) (PSI 1-6); higher = more stable
Conditions: c terminus: a fixed tail appended
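Further: lentivirally expressed fusions sorted by FACS into six bins by GFP to DsRed ratio, PSI derived from sequencing read proportions per bin multiplied by bin number.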

| Variant | protein stability index |
| --- | --- |
| FQEYDTDCEVFRQRFRQFQYREAH | 1.96 |
| FQEYDTDCEVFRQRFRQFQYREAI | 2.08 |
| FQEYDTDCEVFRQRFRQFQYREAK | 2.76 |
| FQEYDTDCEVFRQRFRQFQYREAL | 2.64 |
| FQEYDTDCEVFRQRFRQFQYREAM | 2.13 |
| FQEYDTDCEVFRQRFRQFQYREAN | 2.65 |
| FQEYDTDCEVFRQRFRQFQYREAP | 2.77 |
| FQEYDTDCEVFRQRFRQFQYREAQ | 3.13 |
| FQEYDTDCEVFRQRFRQFQYREAR | 3.04 |
| FQEYDTDCEVFRQRFRQFQYREAS | 2.55 |
| FQEYDTDCEVFRQRFRQFQYREAT | 2.35 |
| FQEYDTDCEVFRQRFRQFQYREAV | 2.13 |
| FQEYDTDCEVFRQRFRQFQYREAW | 1.93 |
| FQEYDTDCEVFRQRFRQFQYREAY | 2.33 |

Variants of: B2
Test: as above
Conditions: c terminus: a fixed tail appended

| Variant | protein stability index |
| --- | --- |
| GHTGKTPFVCPECGQPCSQKSGLI | 3.8 |
| YHTGKTPFVCPECGQPTSQKSGLI | 2.04 |
| YHPGKTPFVCPECGQPCSQKSGLI | 1.61 |
| YLTGKTPFVCPECGQPCSQKSGLI | 2.2 |
| YHTGKTPFVCPECGQPCEQKSGLI | 3.48 |
| YHTGKTPFVCPECGQPCSEKSGLI | 1.71 |
| YHLGKTPFVCPECGQPCSQKSGLI | 1.76 |
| YHTGKWPFVCPECGQPCSQKSGLI | 1.96 |
| NHTGKTPFVCPECGQPCSQKSGLI | 3.08 |
| YHTGKTPFVCPECGQPCVQKSGLI | 1.44 |
| YITGKTPFVCPECGQPCSQKSGLI | 2.36 |
| YHTDKTPFVCPECGQPCSQKSGLI | 2.48 |
| YHTGKTPFVCPECGQPDSQKSGLI | 2.63 |
| YHTGKTQFVCPECGQPCSQKSGLI | 1.77 |
| YHTGKCPFVCPECGQPCSQKSGLI | 1.45 |
| YHTGKTPFVCPECGQICSQKSGLI | 1.87 |
| YHTGKVPFVCPECGQPCSQKSGLI | 1.65 |
| YHTGKTPFVCPEVGQPCSQKSGLI | 2.13 |
| YHTGKTPFVCPECGQPCCQKSGLI | 2.08 |
| YHTGKTPQVCPECGQPCSQKSGLI | 2.69 |
| YHTGKTPFVCPICGQPCSQKSGLI | 1.91 |
| YHTGETPFVCPECGQPCSQKSGLI | 2.16 |
| YHTGKTPFVCPVCGQPCSQKSGLI | 2.22 |
| YHTGKTPFVCPESGQPCSQKSGLI | 1.62 |
| YFTGKTPFVCPECGQPCSQKSGLI | 2.25 |
| YHTGKTPFVCPECGQPCSQKSGLN | 1.99 |
| YGTGKTPFVCPECGQPCSQKSGLI | 1.98 |

| Variant | protein stability index |
| --- | --- |
| YHTGKTPFVCPECGQPPSQKSGLI | 2.54 |
| YHTGKTPFVCPEIGQPCSQKSGLI | 2.35 |
| YHTGKFPFVCPECGQPCSQKSGLI | 2.42 |
| YHTGKTPFVCIECGQPCSQKSGLI | 1.69 |
| KHTGKTPFVCPECGQPCSQKSGLI | 2.72 |
| YHTGKTPFVCPHCGQPCSQKSGLI | 1.54 |
| YHTGKTPFVCPECGQPCSQKSMLI | 1.87 |
| YHTGATPFVCPECGQPCSQKSGLI | 1.62 |
| YHTGKTPFVCPECGQPCSQKSELI | 2.32 |
| YHTGKTAFVCPECGQPCSQKSGLI | 1.73 |
| YHTNKTPFVCPECGQPCSQKSGLI | 1.67 |
| YHTGKTPAVCPECGQPCSQKSGLI | 1.84 |
| YHTGKTPFVCPECGQPCSQKSDLI | 1.49 |
| YHTGKTPNVCPECGQPCSQKSGLI | 2.16 |
| YWTGKTPFVCPECGQPCSQKSGLI | 2.06 |
| YHTGKTPFVCPECGQPCSGKSGLI | 1.49 |
| YHTGKTPFVCPECGQPCSWKSGLI | 1.23 |
| YHTGKTPFVCPECGQPCSQKEGLI | 1.85 |
| YHTGKTPFVCPKCGQPCSQKSGLI | 2.35 |
| YHTGKTSFVCPECGQPCSQKSGLI | 1.6 |
| YHTGKTPFVCPECGQPCSQKSKLI | 1.89 |
| YHTGKEPFVCPECGQPCSQKSGLI | 2.89 |
| YHTGKTPFICPECGQPCSQKSGLI | 2.38 |
| YHTGKTPFQCPECGQPCSQKSGLI | 2.02 |
| YHTGKTPFVCTECGQPCSQKSGLI | 2.49 |
| YHTGPTPFVCPECGQPCSQKSGLI | 2.66 |
| YHTGKTPFVCPECGQPCSQRSGLI | 2.69 |

| Variant | protein stability index |
| --- | --- |
| YHTGKTPFVCPECGQPCSQMSGLI | 1.53 |
| YHTGKTPFVCPECGQPCSQQSGLI | 3.76 |
| YHTGKTPFVCPECGQPCKQKSGLI | 1.46 |
| DHTGKTPFVCPECGQPCSQKSGLI | 3.98 |
| YHTGKTPFVCPECGQPCSQKSVLI | 2.92 |
| YHTGKTPFVCCECGQPCSQKSGLI | 1.65 |
| YHTGKTPFVCPECGQPCSQNSGLI | 1.07 |
| YHTGKDPFVCPECGQPCSQKSGLI | 1.92 |
| YHTGWTPFVCPECGQPCSQKSGLI | 2.1 |
| YHTGKTPFVCPECGQPCSHKSGLI | 2.2 |
| YHTGSTPFVCPECGQPCSQKSGLI | 2.62 |
| YHTGKTRFVCPECGQPCSQKSGLI | 1.03 |
| YHTGKTPFVCPECGQSCSQKSGLI | 1.9 |
| YHTGKTPFVCPECGQPCSQKSGVI | 2.58 |
| YHTGKTPFVCPECGQPQSQKSGLI | 1.96 |
| YHTGKTPFVCPECGQPCSQKSHLI | 2.72 |
| YHWGKTPFVCPECGQPCSQKSGLI | 1.48 |
| YHTGKQPFVCPECGQPCSQKSGLI | 2.96 |
| YHTGKKPFVCPECGQPCSQKSGLI | 1.79 |
| YPTGKTPFVCPECGQPCSQKSGLI | 2.15 |
| YHTGKTPFVCPECGQPCSDKSGLI | 2.37 |
| YHTGKTEFVCPECGQPCSQKSGLI | 1.44 |
| YHTGKTPFVCPECGQPCSQKSWLI | 1.63 |
| YHTGKTPFVCPECCQPCSQKSGLI | 2.12 |
| YHTGKTPFVCPECGQPISQKSGLI | 2.01 |
| YHTGKTPFVCDECGQPCSQKSGLI | 1.4 |
